Where a chain is given by its changes, count along the chain named. Names may count otherwise. Like-named read-outs stand apart in the source and are kept apart here.
Tests used:
[1] = target: human MSLN (mesothelin) (human) (UniProt Q13421); assay: cell-based or functional assay
[2] = target: human MSLN (mesothelin) (human) (UniProt Q13421); assay: cell-based or functional assay; remark: listed apart in the source
human MSLN (human) [3] = target: human MSLN (human) (UniProt Q13421); assay: cell-based affinity, flow cytometry on target-transfected CHO cells, nonlinear regression (one site - specific binding), mean of three measurements
human MSLN (human) [4] = target: human MSLN (human) (UniProt Q13421); assay: cell-based or functional assay

B1: CH3 15-E11 CC×I2L×G4×scFc×G4×MS 15-B12 CC×I2L_GQ (SEQ ID NO 251) (bispecific antibody)
chain: QVQLVQSGAEVKKPGASVKVSCKASGYTFTNYWMNWVRQAPGQCLEWMGNIAYGVKGTNYNQKFQGRVTMTVDTSSSTAYMELSRLRSDDTAVYYCATRYFYVMDYWGQGTLVTVSSGGGGQGGGGQGGGGQDIQMTQSPSSLSASVGDRVTITCRASQDISNYLNWYQQKPGKVPKLLIYYTSRLHSGVPSRFSGSGSGTDFTLTISSLQPEDVATYYCVQYAQFPLTFGCGTKVEIKSGGGGQEVQLVESGGGLVQPGGSLKLSCAASGFTFNKYAMNWVRQAPGKGMEWVARIRSKYNNYATYYADAVKDRFTISRDDSKNTLYLQMNNLKTEDTAVYYCVRAGNFGSSYISYFAYWGQGTLVTVSSGGGGQGGGGQGGGGQQTVVTQEPSLTVSPGGTVTITCGSSTGAVTSGNYPNWIQKKPGQAPRGLIGGTKFLAPGTPARFSGSLEGGKAALTLSGVQPEDEAEYYCVLYYSNRWVFGSGTKLTVLGGGGCPPCPAPELLGGPSVFLFPPKPKDTLMISRTPEVTCVVVDVSHEEPEVKFNWYVDGVEVHNAKTKPCEEQYGSTYRCVSVLTVLHQDWLNGKEYKCKVSNKALPAPIEKTISKAKGQPREPQVYTLPPSREEMTKNQVSLTCLVKGFYPSDIAVEWESNGQPENNYKTTPPVLDSDGSFFLYSKLTVDKSRWQQGNVFSCSVMHEALHNHYTQKSLSLSPGKGGGGQGGGGQGGGGQGGGGQGGGGQGGGGQCPPCPAPELLGGPSVFLFPPKPKDTLMISRTPEVTCVVVDVSHEEPEVKFNWYVDGVEVHNAKTKPCEEQYGSTYRCVSVLTVLHQDWLNGKEYKCKVSNKALPAPIEKTISKAKGQPREPQVYTLPPSREEMTKNQVSLTCLVKGFYPSDIAVEWESNGQPENNYKTTPPVLDSDGSFFLYSKLTVDKSRWQQGNVFSCSVMHEALHNHYTQKSLSLSPGKGGGGQVQLQESGPGLVKPSETLSLTCTVSGGSISSSSYFWGWIRQPPGKCLEWIGNIYYSGSSNYNPSLKSRVTISVDTSKNQFSLKLSSVTAADTAVYYCARLPRGDRDAFDIWGQGTMVTVSSGGGGQGGGGQGGGGQDIVMTQSPSSLSASVGDRVTITCRASQGISNYLAWYQQKPGKVPKLLIYAASTLQSGVPSRFSGSGSGTDFTLTISSLQPEDFATYYCQQSYSTPFTFGCGTKVEIKSGGGGQEVQLVESGGGLVQPGGSLKLSCAASGFTFNKYAMNWVRQAPGKGMEWVARIRSKYNNYATYYADAVKDRFTISRDDSKNTLYLQMNNLKTEDTAVYYCVRAGNFGSSYISYFAYWGQGTLVTVSSGGGGQGGGGQGGGGQQTVVTQEPSLTVSPGGTVTITCGSSTGAVTSGNYPNWIQKKPGQAPRGLIGGTKFLAPGTPARFSGSLEGGKAALTLSGVQPEDEAEYYCVLYYSNRWVFGSGTKLTVL
cytotoxicity EC50, E:T ratio 1:1, GSU KO CDH3 cells [1]: 108 pM | cytotoxicity EC50, E:T ratio 1:2, GSU KO CDH3 cells [1]: 446 pM | cytotoxicity EC50, E:T ratio 10:1, GSU KO CDH3 cells [1]: 39.6 pM | cytotoxicity EC50, GSU KO CDH3 cells [1]: 512 pM | cytotoxicity EC50, HCT 116 KO CDH3 cells [1]: 51.8 pM | cytotoxicity EC50, GSU KO CDH3 cells [2]: 512 pM

B2: CH3 15-E11_1_VAG_CC × I2L × G4 × scFc × G4 × MS 15-B12 CC × I2L clipopt_DI (bispecific antibody)
chain: B1 chain with K56A
Kd (human MSLN (human) [3]): 40000 pM

B3: CH3 15-E11 CC × I2L × G4 × scFc × G4 × MS 15-B12 CC × I2L_GQ (bispecific antibody)
chain: B1 chain
EC50 (cytotoxicity) on double positive cells; column head printed 'EC50 CHO hu CDH3 (+) & MSLN (+)'; value is that of HCT 116 wt in Table 46 (human MSLN (human) [4]): 0.071 pM | EC50 (cytotoxicity); column head printed 'EC50 CHO hu CDH3 (+)', table title HCT 116; value is that of HCT 116 KO CDH3 in Table 46 (human MSLN (human) [4]): 51.8 pM | EC50 on HCT 116 KO CDH3 (cytotoxicity; cells CDH3-, MSLN+) (human MSLN (human) [4]): 51.8 pM | EC50 on HCT 116 wt (cytotoxicity; cells CDH3+, MSLN+) (human MSLN (human) [4]): 0.07 pM | fold gap of column 6 (HCT 116 KO CDH3 by Table 46) against double positive cells (human MSLN (human) [4]): 727 fold | Kd (human MSLN (human) [3]): 33800 pM

B4: CH3 15-E11 VAG CC×I2L×G4×scFc×MS 15-B12 CC×I2L clipopt ID (SEQ ID NO 434) (bispecific antibody)
chain: B1 chain with K56A
cytotoxicity EC50, GSU KO CDH3 cells [1]: 75.2 pM | cytotoxicity EC50, HCT 116 KO CDH3 cells [1]: 5.9 pM

Source: patent US20240209078A1
